US7939057B2, “Methods and compositions for modulating the mobilization of stem cells” (Mount Sinai School of Medicine, priority 2006, dated 2011)

Legend:
rhCXCL12α = test: Degradation of rhCXCL12α by BMEF of G-CSF-treated mice (Western blot); format: biochemical, human; settings: 24 h at 37° C.
Procedure: PBS or BMEF (35 μl) from G-CSF-treated and control mice was incubated with 50 ng of rhCXCL12α (R&D Systems) for 24 h at 37° C. The reactions were stopped by the addition of sample buffer containing protease inhibitor cocktail (Sigma) and DTT (final concentration 10 mM) followed by boiling for 5 min at 95° C. Samples were separated by electrophoresis on 16% polyacrylamide Tris-tricine gel and transferred onto PVDF membrane (0.2 μm pore size, Millipore, Bedford, Mass.). Membranes were blocked in TBS with 0.05% Tween 20 and 4% milk, incubated with 0.5 μg/ml of mouse monoclonal anti-CXCL12 antibody (clone 79018.111, R&D Systems) then with 1/20,000 dilution of horseradish peroxidase-anti-mouse IgG (Jackson Immunoresearch, West Grove, Pa.). Signal was detected with the enhanced chemiluminescence method (West Dura Extended Duration Substrate, Pierce, Rockford, Ill.).

Runx2 = test: Q-PCR of Runx2 in BMNCs after G-CSF; format: in vivo; settings: bone marrow of Cgt+/+ mice after G-CSF; n=4, p<0.001
Procedure: (§1) Methods, primers and PCR conditions are available in Table S3. Briefly, total RNA was extracted from BMNC using TRIzol solution (Invitrogen, Carlsbad, Calif.). The bone carcass was then immersed in liquid nitrogen, and pulverized into powder followed by RNA extraction with TRIzol. Total RNA (1 μg) was treated with DNaseI (Invitrogen, Carlsbad, Calif.), and reverse transcribed using first strand cDNA synthesis with random primers (Promega, Madison, Wis.). Q-PCR was performed using SYBR Green (Molecular Probes) on an ABI PRISM 7900HT Sequence Detection System (Applied Biosystems, Foster city, CA). All experiments were done in triplicate and normalized to GAPDH.

CXCL12 = test: CXCL12α and CXCL12β mRNA by Q-PCR in BM and bone after G-CSF; format: in vivo, mice
Procedure: as §1

bone lining osteoblasts = test: Morphology of bone lining osteoblasts (CD44 immunofluorescence); format: in vivo; settings: G-CSF-treated wild-type C57BL/6 mice
Procedure: For the morphology of bone lining osteoblasts, femoral bones were fixed overnight in formalin, decalcified in 10% EDTA (pH 7.4) for 48 h, snap-frozen in isopentane chilled in liquid nitrogen, and sectioned at 10 μm thickness. Sections were fixed with 4% parafolmaldehyde for 20 min, stained with anti-CD44 (KM201) followed by donkey Alexa-488-anti-rat IgG (Molecular Probes, Eugene, Oreg.), and mounted in Vectashield Mounting Medium with DAPI (Vector Laboratories). TUNEL assay was done using an In Situ Cell Death Detection Kit (Roche Applied Science, Penzberg, Germany) according to manufacturer's recommendation. Images were captured and analyzed with Olympus BX61WI (Hauppauge, N.Y.) with 60× objective mounted on a motorized X, Y stage and a Z focusing drive (Applied Scientific Instrumentation, Eugene, Oreg.). Images are collected with Coolsnap HQ digital camera (Ropert Scientific, Munich, Germany). A Dell workstation with SlideBook software (Intelligent Imaging Innovations, Denver, Colo.) provided for synchronization of components, data acquisition and image deconvolution.

α1(I) collagen = test: Q-PCR of α1(I) collagen in BMNCs after G-CSF; format: in vivo; settings: bone marrow of Cgt+/+ mice after G-CSF; n=4, p<0.05
Procedure: as §1

[1] = test system: hematopoietic stem and progenitor cells (HSPCs); test: G-CSF-induced mobilization of hematopoietic progenitors (circulating CFU-C); format: in vivo, mice
Procedure: To induce HSPC mobilization, mice were injected with recombinant human G-CSF (Filgrastim, Amgen, Thousand Oaks, Calif., 250 μg/kg/day, every 12 hours, 8 divided doses, s.c.) in PBS supplemented with 0.1% endotoxin free bovine serum albumin (BSA) or fucoidan (Sigma; 2 doses of 100 mg/kg with 2 h interval, i.p.) in PBS. Blood was harvested 3 h (G-CSF) or 1 h (fucoidan). CFU-C assays were carried out as previously described (Katayama, Y., and Frenette, P. S. (2003). Galactocerebrosides are required postnatally for stromal-dependent bone marrow lymphopoiesis. Immunity 18, 789-800).
A chronic guide cannula (1.0 mm) was implanted stereotaxically into the lateral ventricle (coordinates AP, −0.7 mm; DV, −2.4 mm; ML, 1.5 mm, from bregma). One week after implantation, mice received a reduced dose of G-CSF (25 μg/kg daily for 4 doses) either by ICV infusion (rate: 0.4 μL/min) or by s.c. injection.
Newborn C57BL/6 mice were injected s.c. with 6OHDA (100 mg/kg, Sigma) or vehicle (saline) on postnatal days 2, 4, 6, 8 and 9. HSPC mobilization was induced at 3 weeks of age. For SNS disruption in adult C57BL6 mice, 4 week-old animals were injected i.p. with 2 doses of 6OHDA or vehicle, 100 mg/kg on day 0, 250 mg/kg on day 2, and G-CSF treatment was begun on day 5. For β-adrenergic receptor blockade, 4 week-old C57BL/6 mice were treated with propranolol (0.5 g/L in drinking water, Sigma) or control pure water for 3 weeks prior to mobilization. For rescue experiments, clenbuterol (2 mg/kg/day, i.p.) was injected starting day −2 prior to and continued during G-CSF treatment.

B1: G-CSF: recombinant human G-CSF (Filgrastim, Amgen), hematopoietic cytokine used to elicit HSPC mobilization (protein, UniProt P09919 31-207, looked up)
Granulocyte …: TPLGPASSLPQSFLLKCLEQVRKIQGDGAALQEKLVSECATYKLCHPEELVLLGHSLGIPWAPLSSCPSQALQLAGCLSQLHSGLFLYQGLLQALEGISPELGPTLDTLQLDVADFATTIWQQMEELGMAPALQPTQGAMPAFASAFQRRAGGVLVASHLQSFLEVSYRVLRHLAQP
modifications: filgrastim
notes: recombinant human G-CSF (Filgrastim, Amgen), hematopoietic cytokine used to elicit HSPC mobilization
In the case of B1, the “degradation of recombinant CXCL12 by BMEF” value (rhCXCL12α; BMEF from G-CSF-treated Cgt+/+ mice) is reported as “completely degraded”, the “degradation of recombinant CXCL12 by BMEF” value (rhCXCL12α; BMEF from G-CSF-treated Cgt−/− mice) is reported as “complete degradation” and the “levels of Runx2, reduction” value (Runx2) is reported as 65%. For the same molecule, the “CXCL12 mRNA levels in bone” value (CXCL12; after G-CSF treatment, p<0.05 for CXCL12α, p=0.06 for CXCL12β) was “moderately decreased”, the “mRNA expression of both CXCL12 isoforms in BM” value (CXCL12; after G-CSF, Cgt−/− and normal littermates) was “profoundly decreased” and the “appearance of bone-lining osteoblasts” value (bone lining osteoblasts) was “flattened appearance with shorter projections”. The “α1(I) collagen, reduction” value (α1(I) collagen) was 92%, the “HSPC mobilization by route of G-CSF” value ([1]; C57BL/6 mice, ICV infusion vs s.c. injection, 25 μg/kg daily for 4 doses) was “robust HSPC mobilization occurred only when mice were treated systemically” and the “G-CSF-induced mobilization in chimeric mice” value ([1]; CD45.1 wild-type mice reconstituted with Cgt+/+ or −/− BM) was “similar”. For the same molecule, the “G-CSF-induced mobilization of HSPCs” value ([1]; Cgt−/− mice compared to Cgt+/− or +/+ littermates) was “little mobilization”, the “G-CSF-triggered mobilization of CFU-Cs and Lin-Sca-1+c-kit+ cells” value ([1]; Dbh−/− compared to Dbh+/− littermates) was “dramatically compromised” and the “numbers of circulating progenitors after G-CSF” value ([1]; Lepr(db/db) vs Lepr(+/db) mice, human G-CSF 250 μg/kg/day, n=5) was “no difference”. The “circulating CFU-Cs elicited by G-CSF” value ([1]; Rag 1−/− and IL7Rα−/− mice, data not shown) was “elicited at levels similar to those of wild-type mice”.
